The results in this text go back to paper PMC4536467, “A high affinity RIM-binding protein/Aplip1 interaction prevents the formation of ectopic axonal active zones” (eLife, 2015).

For one experiment, the system named is RBP SH3-II+III. The experiment can be described thus: Isothermal titration calorimetry (ITC), peptide titrated into tandem RBP SH3-II+III. Type of experiment: binding, Drosophila. To be noted: second and third SH3 domain of RBP. As for the experimental part: ITC experiments were performed at 25°C on an iTC200 microcalorimeter (Malvern Instruments Ltd., United Kingdom). The same peptides were employed as used for the co-crystallization experiments (see below). Lyophilized peptides were resuspended in the final buffer of the proteins (10 mM Tris-HCl pH 7.4, 100 mM NaCl). RBP SH3-II and SH3-III were both provided at a concentration of 150 µM, RBP SH3-II+III was provided at 78 µM. The proteins were titrated with 16 injections of 2.5 µl of either Aplip1, Cac, RIM1 or RIM2 peptide at a concentration of 2 mM with 2-min intervals. The released heat was obtained by integrating the calorimetric output curves. Binding parameters were calculated using the Origin5 software using the ‘One Set of Sites’ curve fitting model provided by the software.
For crystallization experiment the RBP SH3-II was concentrated to 56 mg/ml and the RBP SH3-III to 62 mg/ml. The same peptides as for ITC measurements were used and synthesized at the Leibniz Institute for Molecular Pharmacology with N-terminal acetylation and C-terminal amidation. The unsolubilized peptides were mixed in a fivefold molar excess with the protein solution and incubated for 2 hr on ice. Insoluble peptide was removed by centrifugation (16,000×g for 1 min) prior to crystallization experiments. All crystallization experiments were carried out at 291 K in a sitting drop setup. […]

The next experiment concerns RBP SH3-I. The experiment can be described thus: Isothermal titration calorimetry (ITC), peptide titrated into RBP SH3-I. To be noted: 25°C, result in words. The class given is binding, Drosophila.
The next experiment has as its system RBP SH3-II. Kind of experiment: Semi-quantitative liquid Y2H ß-galactosidase assay, bait RBP SH3-II. The class given is cell-based, Drosophila. As to conditions: n = 3 independent experiments, mean ± SEM. From the text:
(§1) The plasmids (pP6 and pB27) encode tryptophan (Trp) and leucine (Leu) biosynthesis genes, and were successfully double transformed into the TATA strain lacking genes for synthesis of Leu and Trp which can be followed by positive growth in LT media. Reporter genes for the protein–protein interaction are HIS3, which can be later detected by growth on plates lacking histidin, as well as lacZ which allows the detection of interaction in a more quantitative fashion with a β-galactosidase assay. To transform the yeast cells with the pP6 and pB27 vector respectively the LiAc/single strand DNA/PEG technique was used ([Gietz and Schiestl, 2007]).
(§2) The assay was carried out as described in JH Miller ‘Experiments in Molecular Genetics’ 1972 Cold Spring Harbor Laboratories pages 352–355.
(§3) The RBP constructs for Y2H were cloned into pB27 bait vector. The RBP cDNA clone AT04807 (Drosophila Genomics Resource Centre) was used as a template for PCR reaction. For amplification the following primers were used: […]

For another experiment, the system named is RBP SH3-III. Kind of experiment: Semi-quantitative liquid Y2H ß-galactosidase assay, bait RBP SH3-III. To be noted: n = 3 independent experiments, mean ± SEM. The class given is cell-based, Drosophila.
Excerpt: as §1, §2, §3

Experiment [1] relates to RBP SH3-II* (Prolin1373 → Leucin). Kind of experiment: Semi-quantitative liquid Y2H ß-galactosidase assay, bait point-mutated RBP SH3-II*. Type of experiment: cell-based, Drosophila. As to conditions: n = 3 independent experiments, mean ± SEM.
Excerpt: as §1, §2
(§4) By applying the site-directed mutagenesis strategy, different constructs were designed for RBP using mutated primers. Mutagenesis was carried out by Dr Martin Meixner (SMB. GmbH, Germany,). The following point mutations were used:
RBP SH3-II*: Prolin1373 → Leucin

For experiment [2], the system named is RBP SH3-III* (Prolin1500 → Leucin). The experiment can be described thus: Semi-quantitative liquid Y2H ß-galactosidase assay, bait point-mutated RBP SH3-III*. Type of experiment: cell-based, Drosophila. As to conditions: n = 3 independent experiments, mean ± SEM.
Excerpt: as §1, §2, §4
RBP SH3-III*: Prolin1500 → Leucin

In experiment [3] the target is T1, RBP SH3-II+III (ITC construct) (D. melanogaster).
T1 chain: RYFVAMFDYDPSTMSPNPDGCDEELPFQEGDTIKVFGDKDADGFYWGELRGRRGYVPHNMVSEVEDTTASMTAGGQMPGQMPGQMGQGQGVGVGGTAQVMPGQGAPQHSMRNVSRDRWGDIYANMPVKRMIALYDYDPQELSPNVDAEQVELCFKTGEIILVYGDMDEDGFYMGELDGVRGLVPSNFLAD
Kind of experiment: ITC.

Experiment [4] addresses T2, RBP SH3-III (ITC construct) (D. melanogaster).
T2 chain: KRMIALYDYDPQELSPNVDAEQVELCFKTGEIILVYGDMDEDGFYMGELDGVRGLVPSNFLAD
Kind of experiment: ITC.

In experiment [5] the target is T3, RBP SH3-II (residue 1318–1382; ITC and crystallisation construct) (D. melanogaster).
T3 chain: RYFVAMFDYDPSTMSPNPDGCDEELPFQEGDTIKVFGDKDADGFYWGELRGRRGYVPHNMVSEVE
Kind of experiment: ITC.

Experiment [6] has as its target T4, RBP SH3-II (residue 1318–1382; ITC and crystallisation construct) (D. melanogaster).
T4 construct: pGEX-6P1, EcoRI/XhoI; also called RBP-BP SH3-II; source: E. coli BL21-CodonPlus-RIL, purified (glutathione sepharose, PreScission cleavage, Superdex 75); not shown: GST, N-terminal, cleaved
T4 chain: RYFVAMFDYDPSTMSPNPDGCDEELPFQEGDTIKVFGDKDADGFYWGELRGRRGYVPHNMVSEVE
The experiment can be described thus: ITC; 25°C, iTC200; RBP SH3-II and SH3-III at 150 µM, SH3-II+III at 78 µM in the cell, titrated with 16 injections of 2.5 µl peptide at 2 mM; 10 mM Tris-HCl pH 7.4, 100 mM NaCl; 'One Set of Sites' model. As to conditions: both partners purified.

Experiment [7] addresses T5, RBP SH3-III (ITC construct) (D. melanogaster).
T5 construct: it may be the same protein; also called RBP-BP SH3-III
T5 chain: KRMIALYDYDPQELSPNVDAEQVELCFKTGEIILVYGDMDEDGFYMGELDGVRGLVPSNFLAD
The description is as above. To be noted: both partners purified.

Experiment [8] deals with T4, RBP SH3-II (residue 1318–1382; ITC and …). Kind of experiment: crystal structure; co-crystallisation of the SH3 domain with a fivefold molar excess of peptide, sitting drop, 291 K. To be noted: both partners purified.
The target of experiment [9] is T6, RBP SH3-II+III (ITC construct) (D. melanogaster).
T6 construct: Cloning and purification of this construct are not described; also called tandem SH3-II+III; RBP-BP SH3-II+SH3-III
T6 chain: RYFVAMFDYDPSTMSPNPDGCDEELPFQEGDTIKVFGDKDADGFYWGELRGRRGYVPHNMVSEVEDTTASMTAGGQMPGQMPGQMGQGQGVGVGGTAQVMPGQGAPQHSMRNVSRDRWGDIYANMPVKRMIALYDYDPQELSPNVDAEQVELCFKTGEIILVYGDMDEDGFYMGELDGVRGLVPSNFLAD
Kind of experiment: ITC; 25°C, iTC200; RBP SH3-II and SH3-III at 150 µM, SH3-II+III at 78 µM in the cell, titrated with 16 injections of 2.5 µl peptide at 2 mM; 10 mM Tris-HCl pH 7.4, 100 mM NaCl; 'One Set of Sites' model. To be noted: both partners purified.

In experiment [10] the target is T7, RBP SH3-III (residue 1441–1507; crystallisation construct) (D. melanogaster).
T7 construct: pGEX-6P1, EcoRI/XhoI; linker residues may remain at the N-terminus after PreScission cleavage; source: E. coli BL21-CodonPlus-RIL, purified (glutathione sepharose, PreScission cleavage, Superdex 75); not shown: GST, N-terminal, cleaved
T7 chain: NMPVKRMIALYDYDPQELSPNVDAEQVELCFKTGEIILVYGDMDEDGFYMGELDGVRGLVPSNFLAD
The experiment can be described thus: crystal structure; co-crystallisation of the SH3 domain with a fivefold molar excess of peptide, sitting drop, 291 K. To be noted: both partners purified.

In the case of Ac-TRRRRKLPEIPKNKK-NH2 [Aplip1], in the experiment on RBP SH3-II+III, the “affinity relative to RBP binding of its synaptic ligands (Ca2+ channels/RIM)” value is recorded as “more than 10 fold”. Further, the “binding to RBP SH3-I” value in the experiment with RBP SH3-I is given as “could not detect any binding”.
Regarding “EDDELGDGLKVTLSSDGSLDTNDSFNSHRHHPLNHQDAIGGFLGMDTSGLGGNSAPVTIGASTDLLAPNTAATRRRRKLAEIAKNKKSSILHLLGGSNFGSLADEFRNGGGGGIPPAVRSGQQRSFLSLKCGYLMDEDS [Aplip1-AxxA1, Y2H prey fragment of Aplip1 (139 AA) with mutated first PxxP motif (P156 → A; P159 → A)]”, the “mean ß-Gal4 units: RBP SH3-II” value in the experiment with RBP SH3-II is listed as 0.1 ± 0.1 ß-Gal4 units. Further, the “mean ß-Gal4 units: RBP SH3-III” value with RBP SH3-III is reported as 0.2 ± 0.0 ß-Gal4 units.
For the molecule “EDDELGDGLKVTLSSDGSLDTNDSFNSHRHHPLNHQDAIGGFLGMDTSGLGGNSAPVTIGASTDLLAPNTAATRRRRKLPEIPKNKKSSILHLLGGSNFGSLADEFRNGGGGGIPPAVRSGQQRSFLSLKCGYLMDEDS [Aplip1-PxxP1, Y2H prey fragment of Aplip1 (139 AA) containing only the first PxxP motif]”, in the experiment with RBP SH3-II, the “mean ß-Gal4 units: RBP SH3-II” value was 24.3 ± 6.6 ß-Gal4 units. Also, the “mean ß-Gal4 units: RBP SH3-III” value with RBP SH3-III is 29.1 ± 7.4 ß-Gal4 units. Also, in [1], the “mean ß-Gal4 units: RBP SH3-II*” value was 0.1 ± 0.0 ß-Gal4 units. Also, the “mean ß-Gal4 units: RBP SH3-III*” value in experiment [2] is reported as 0.1 ± 0.0 ß-Gal4 units.
With “LLGGSNFGSLADEFRNGGGGGIPPAVRSGQQRSFLSLKCGYLMDEDSSPDSERMQSLGDVDSGHSTAHSPNDFKSMSPQITSPVSQSPFPPPFGGVPFGQ [Aplip1-PxxP2, Y2H prey fragment of Aplip1 (100 AA) containing only the second PxxP motif]”, in the experiment on RBP SH3-II, the “mean ß-Gal4 units: RBP SH3-II” value is recorded as 0.2 ± 0.0 ß-Gal4 units. Besides, the “mean ß-Gal4 units: RBP SH3-III” value with RBP SH3-III was 0.2 ± 0.1 ß-Gal4 units.

B1: RIM1 peptide (GRQLPQVPVRSG) (peptide)
peptide: Ac-GRQLPQVPVRSG-NH2
notes: PxxP peptide named RIM1; May be a mammalian RIM1 motif or one of two motifs of Drosophila RIM; source: synthetic peptide (Leibniz Institute for Molecular Pharmacology)
On to B1, for which the Kd came to 16 µM in experiment [3], 8.4 µM in experiment [4] and 10.4 µM in [5]. Further, the binding result in experiment [6] and in experiment [7] was “binds” each time.

B2: RIM2 peptide (GRQLPQLPPKGT) (peptide)
peptide: Ac-GRQLPQLPPKGT-NH2
notes: PxxP peptide named RIM2; May be a mammalian RIM2 motif or one of two motifs of Drosophila RIM; source: synthetic peptide (Leibniz Institute for Molecular Pharmacology)
Take B2: the Kd in experiment [3] is 35.7 µM; in experiment [4], 12.5 µM; in [5], 20 µM. The binding result in experiment [6] and in [7] was “binds” throughout.

B3: Aplip-PxxP1 peptide (149-TRRRRKLPEIPKNKK-163) (peptide)
peptide: Ac-TRRRRKLPEIPKNKK-NH2
notes: Aplip1, D. melanogaster, residues 149-163 with the first PxxP motif; also called Aplip1 peptide; Aplip1-PxxP1 peptide; source: synthetic peptide (Leibniz Institute for Molecular Pharmacology)
Consider B3, for which the figures for the Kd in experiment [3], in experiment [4] and in experiment [5] were 0.54 µM, 1.4 µM and 4.1 µM, respectively. The binding result in [8], in experiment [7] and in experiment [9] was “binds” in each case.

B4: Cac peptide (1685-IGRRLPPTPSKPSTL-1699) (peptide)
peptide: Ac-IGRRLPPTPSKPSTL-NH2
notes: also called Cacophony peptide; Cac-derived peptide; source: synthetic peptide (Leibniz Institute for Molecular Pharmacology)
As to B4, the values for the Kd in [3], in experiment [4] and in experiment [5] were 31.3 µM, 17.3 µM and 20.2 µM, respectively. For the same molecule, the binding result in experiment [8], in experiment [10] and in experiment [7] was “binds” in each case.
